B1: Untagged LEDGF (natural protein)
chain: not shown
notes: lens epithelium derived growth factor (LEDGF/p75), coded by the PSIP1 gene; source: E. coli, purified as described for FLAG-LEDGF
B2: Hexa-His tagged full length HIV IN (enzyme)
chain: FLDGIDKAQEEHEKYHSNWRAMASDFNLPPVVAKEIVASCDKCQLKGEAMHGQVDCSPGIWQLDCTHLEGKVILVAVHVASGYIEAEVIPAETGQETAYFLLKLAGRWPVKTVHTDNGSNFTSTTVKAACWWAGIKQEFGIPYNPQSQGVIESMNKELKKIIGQVRDQAEHLKTAVQMAVFIHNFKRKGGIGGYSAGERIVDIIATDIQTKELQKQITKIQNFRVYYRDSRDPVWKGPAKLLWKGEGAVVIQDNSDIKVVPRRKAKIIRDYGKQMAGDDCVASRQDED
notes: HIV-1 integrase, the cut product of the Gag-Pol polyprotein; also called His6-tagged IN; HIV integrase; source: E. coli BL21(DE3), purified (nickel HiTrap column)

Assay [1] has as its target B2. In words: AlphaScreen or HTRF; His6-tagged IN (30 nM) on Ni-chelate donor beads, Flag-tagged LEDGF (30 nM) on anti-FLAG acceptor beads; 25 mM Tris-Cl pH 7.5, 25 mM NaCl, 5 mM MnCl2, 5 mM MgCl2, 5 mM BME, 50 ug/ml BSA, 0.05% Tween-20; 1 hour at 30°C; competition with untagged LEDGF. The following applies: both partners purified. A general note: Alpha assays give light when donor and acceptor beads are brought close together.

Assay [2] addresses T1, FLAG epitope tagged LEDGF protein (UniProt O75475 1-530).
T1 construct: lens epithelium derived growth factor (LEDGF/p75), coded by the PSIP1 gene; also called FLAG-LEDGF; Flag-tagged LEDGF; source: E. coli BL21(DE3), purified (heparin column, SP column); not shown: FLAG, N-terminal, kept
The description is as above. To be noted: both partners purified.

For B1, the “percent reduction of the AlphaScreen signal at a 1:1 molar ratio with FLAG-LEDGF” value in assay [1] is 50%.
With B2, in assay [2], the binding result is recorded as “binds”.

(Values after paper PMC3393750, “Small Molecule Inhibitors of the LEDGF Site of Human Immunodeficiency Virus Integrase Identified by Fragment Screening and Structure Based Design” (PLoS ONE, 2012).)
